Biological target: ErbB2 (UniProt P04626)

Src
Src activity (Src kinase assay, Src-Y416 phosphorylation) after trastuzumab treatment: trastuzumab inhibited Src activity in ErbB2 overexpressing cells

Reference: patent US20190360057
